The labels stand for the following.
B1: Protein BRASSINOSTEROID … 1 (Arabidopsis thaliana (Mouse-ear cress)), O22476 (parent)
chain: MKTFSSFFLSVTTLFFFSFFSLSFQASPSQSLYREIHQLISFKDVLPDKNLLPDWSSNKNPCTFDGVTCRDDKVTSIDLSSKPLNVGFSAVSSSLLSLTGLESLFLSNSHINGSVSGFKCSASLTSLDLSRNSLSGPVTTLTSLGSCSGLKFLNVSSNTLDFPGKVSGGLKLNSLEVLDLSANSISGANVVGWVLSDGCGELKHLAISGNKISGDVDVSRCVNLEFLDVSSNNFSTGIPFLGDCSALQHLDISGNKLSGDFSRAISTCTELKLLNISSNQFVGPIPPLPLKSLQYLSLAENKFTGEIPDFLSGACDTLTGLDLSGNHFYGAVPPFFGSCSLLESLALSSNNFSGELPMDTLLKMRGLKVLDLSFNEFSGELPESLTNLSASLLTLDLSSNNFSGPILPNLCQNPKNTLQELYLQNNGFTGKIPPTLSNCSELVSLHLSFNYLSGTIPSSLGSLSKLRDLKLWLNMLEGEIPQELMYVKTLETLILDFNDLTGEIPSGLSNCTNLNWISLSNNRLTGEIPKWIGRLENLAILKLSNNSFSGNIPAELGDCRSLIWLDLNTNLFNGTIPAAMFKQSGKIAANFIAGKRYVYIKNDGMKKECHGAGNLLEFQGIRSEQLNRLSTRNPCNITSRVYGGHTSPTFDNNGSMMFLDMSYNMLSGYIPKEIGSMPYLFILNLGHNDISGSIPDEVGDLRGLNILDLSSNKLDGRIPQAMSALTMLTEIDLSNNNLSGPIPEMGQFETFPPAKFLNNPGLCGYPLPRCDPSNADGYAHHQRSHGRRPASLAGSVAMGLLFSFVCIFGLILVGREMRKRRRKKEAELEMYAEGHGNSGDRTANNTNWKLTGVKEALSINLAAFEKPLRKLTFADLLQATNGFHNDSLIGSGGFGDVYKAILKDGSAVAIKKLIHVSGQGDREFMAEMETIGKIKHRNLVPLLGYCKVGDERLLVYEFMKYGSLEDVLHDPKKAGVKLNWSTRRKIAIGSARGLAFLHHNCSPHIIHRDMKSSNVLLDENLEARVSDFGMARLMSAMDTHLSVSTLAGTPGYVPPEYYQSFRCSTKGDVYSYGVVLLELLTGKRPTDSPDFGDNNLVGWVKQHAKLRISDVFDPELMKEDPALEIELLQHLKVAVACLDDRAWRRPTMVQVMAMFKEIQAGSGIDSQSTIRSIEDGGFSTIEMVDMSIKEVPEGKL
partner: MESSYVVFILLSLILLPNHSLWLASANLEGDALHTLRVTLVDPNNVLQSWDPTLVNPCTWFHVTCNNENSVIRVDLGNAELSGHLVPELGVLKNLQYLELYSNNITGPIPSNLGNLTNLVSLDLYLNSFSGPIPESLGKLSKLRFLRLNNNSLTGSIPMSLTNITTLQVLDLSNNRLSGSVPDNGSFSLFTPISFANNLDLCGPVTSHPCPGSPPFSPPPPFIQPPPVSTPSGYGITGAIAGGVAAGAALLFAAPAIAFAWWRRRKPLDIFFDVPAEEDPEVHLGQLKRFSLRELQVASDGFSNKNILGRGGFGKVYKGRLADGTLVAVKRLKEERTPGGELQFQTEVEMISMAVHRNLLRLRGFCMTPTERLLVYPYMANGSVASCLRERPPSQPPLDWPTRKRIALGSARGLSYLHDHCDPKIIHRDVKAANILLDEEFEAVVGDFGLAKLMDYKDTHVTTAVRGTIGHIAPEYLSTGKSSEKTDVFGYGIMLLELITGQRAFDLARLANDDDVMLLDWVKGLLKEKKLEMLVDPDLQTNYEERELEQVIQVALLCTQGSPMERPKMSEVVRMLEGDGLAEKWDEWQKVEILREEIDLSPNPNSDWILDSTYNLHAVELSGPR

This experiment covers variants of B1. The conditions noted are these: with serk1_arath SERK1, Q94AG2.
T750I: the “effect of a mutation on the interaction” value was “disrupting interaction strength”.

The values are drawn from IntAct's records for PubMed 23929946.
